# Assay results: PMC5311487
# T1: MEC-8 RRM1 (Caenorhabditis elegans, UniProt G5ECJ4 28-123, C54A;C102A)
# T1 sequence: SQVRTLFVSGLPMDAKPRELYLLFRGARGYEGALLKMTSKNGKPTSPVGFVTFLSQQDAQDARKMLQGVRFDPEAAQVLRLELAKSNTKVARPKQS
# Target: T1, MEC-8 RRM1
# Experiment: ITC
row,Binder,Kd
1,AGCACAUUUUAGCACA (ssRNA) [6-nt spacer],330 ± 10 nM
2,AGCACAUUUUUUUUAUCACA (ssRNA) [10-nt spacer (WT/G16U)],260 ± 80 nM
3,AUCACA (ssRNA) [6-mer (G2U)],20400 ± 800 nM
4,AGCACAUUUUUUUUAGCACA (ssRNA) [10-nt spacer],150 ± 40 nM
5,AGCACAUUUUUUAGCACA (ssRNA) [8-nt spacer],180 ± 40 nM
6,AGCACAUUUUUUUUUUUUAGCACA (ssRNA) [14-nt spacer],110 ± 70 nM
7,AGCACAUUUUUUUUAGCAUA (ssRNA) [10-nt spacer (WT/C19U)],450 ± 30 nM
8,AUCACAUUUUUUUUAUCACA (ssRNA) [10-nt spacer (G2U/G16U)],1290 ± 40 nM
9,AGCACAUUAGCACA (ssRNA) [4-nt spacer],380 ± 90 nM
10,AAUCCAUUGCACUCCGGAUUU (structured_RNA) [U1A stem-loop],240 ± 20 nM
11,AGCACAUUUU (ssRNA) [6-mer + 4U],1750 ± 30 nM
12,AGCACAUUUUUUUUUUAGCACA (ssRNA) [12-nt spacer],80 ± 20 nM
13,ACCACAUUUUUUUUACCACA (ssRNA) [10-nt spacer (G2C/G16C)],1560 ± 10 nM

# Target: T1, MEC-8 RRM1
# Experiment: ITC
# Remark: another data set of the same source
row,Binder,Kd
1,AACACAUUUUUUUUAACACA (ssRNA) [10-nt spacer (G2A/G16A)],900 ± 100 nM
